Assay: soluble on expression in E. coli; label from the status in PepcDB or PDB records

| Sequence | soluble on expression in E. coli |
| --- | --- |
| MIISPLFLKDKSNSEDDASWVSRMMPVDPERGFPLNSHRSWHGGIHIPHTDSGGTPEKIRAIADGTVHSLRQPVGDKKGIPPYNYNGATDCGYVLLKHETEIGSGENAKVVYFSLYMHLASIDAAVKTGEKIYRKDPIGTVGQVDGGNAVHFQIFCDDTNLTKLVGRTTPELDLTKNGRTDAVYGDMYFYLPTGTKFYSHAPANNATTTTEAETYTSTEPLFVSMSFDKGKCTMLTRKKGVFSIGKYSEVGEKLENTDGADYEYNVYAQAKKLYPQSQSAGYELLRFGRVINTDYETLVPADAPLWRTISYPGGKGVVNLALPAVKKFSDGDFPHWTGWQLIDDDTDENSQCNSEQVLCRIGDDMQGLICHLPLEWDASTLEKRLSWLKTTVINESLANQKASHQVDDTGNNASGYAFDNINPDMSVLNAQSTPSFEQAAKDTAMAEADWNALIEHAKALCFDVSGLPVGRVWHFNPISFIAHFRKCGWLDPEKIKSILTSALNKKRNVRKITLIEKASDSNYTFLNLAMRKYNILTPNRQSHFLGQGAVESDSLTAMQEVSQEQVIVNGKQTGGGIVIKSTLNESELGHWYGSEPSELDIYYSGNKYNKNGGLIAGSYSWSNGNCGDVDAQKFRGRGFKMLTGRDKYADYWVYRGWLLKSSFDAYWWDDVKYKSKNLKAMKKRPAIIDDPHKITASPYNCIDSGSFFITCFRRSTVKEIDKDQAESADDSVVTKVTQAINGGDIGLSQRKVMTNNAKGKLNDKY | not soluble |
| MIITEKRHELILEELSHKDFLTLQELIDRTGCSASTIRRDLSKLQQLGKLQRVHGGAMLKENRMIEANLTEKLATNLDEKKMIAKIAANQINDNECLFIDAGSSTLELIKYIQAKDIIVVTNGLTHVEALLKKGIKTIMLGGQVKENTLATIGSSAMEILRRYCFDKAFIGMNGLDIELGLTTPDEQEALVKQTAMSLANQSFVLIDHSKFNKVYFARVPLLESTTIITSEKALNQESLKEYQQKYHFIGGTLLEHHHHHH | soluble |
| MIKEAIKQLAQDIGISKIGFTTADDFDYLEKSLRASVEEGRSSGFEHKNIEERIKPRLSLASAKTIISIAIAYPHKLPVKPPKTQYKRGKITPNSWGLDYHYVLEEKLQRLAQGIESLCQDFPLEHKIMVDTGALVDTAVAQRSGIGFIGKNGLVISKEFGSYMYLGELITNLEIEPDSPVDYDCGDCHRCLDACPTSCLLGDGSMNAKRCLSFQTQDKGMMDLEFRKKIKTVIYGCDICQICCPYNKGIHNPLASEIDPELAEPELLPFLELSNSQFKKKFGMIAGSWRGKNTLQRNAIIALANGHDKSALVKLMEIIDKNNNPIHTATAIWALGEIVKKPTQELYDFILSIHSDNDAIIKERTALLNRWQF | not soluble |
| MIKGMKTRGERLKARRLELKLTLKQVAEAVGISLPGVQNLERGDVMPSLEIGLSLAKCLRKPVQWILYGTESDPDRVPVIGTTETGPDRDWQPGEPANTERFLPFVSQRNTVYALTVGNQIQRNYQPGDVILVDSSLTLVPGEDVLVCDNNGEITIQRLARYDEQHYYLDSANSQRVIHDKSDLQFVHQVVGTIKSFMVEGR | not soluble |
| MIKKIYFGNDHAAYEIKDQIITHLKQKGYQIIDEGAQAALGSVDYSTYALKVANDVVNDTKNDSIGILLCGTGIGMNIAASKVHGTRVALVYNESSAKLAKEHNNANIITIGARENSLNQILKMIDDFLTSKFLGERHQKRLDIIAKYEKEQNS | soluble |
| MIKKQDPLNHPESVDVAIIGAGPAGAVAAALLRQAGQQVLVLERQHFPRFSIGESLLPQSMAYLEQAGMLRAVVEAGFQYKNGAYFVHGDKTAAFDFRDKHSDGWGTTYQVERAAFDQILINCAADQGADVRFGHSVRAVQPGDAPVLEVQTESGDTYTVHARFILDASGFGRVLPRLLNLEAPTGMPLRAALFSHVQDALPAGMTDRNKICIAVHPERRDVWYWMIPLANGRSSVGCVAEASFLDIPEAEREAALRALIRAEPNIASLIGDAPFLMPVRHIGGYAANVEKLHGPGYALLGNAGEFLDPVFSSGVTIALRSADLAVRALLRQLAGETVDWQSVYDVPLRRGIDTFRAFIERWYTGELQDIIFHPQQAPGIRRMISAILAGYAWDETNPFVADPVRRLNTLHEVCRLEAVLEHHHHHH | not soluble |
| MIKKVVNLIMTKERRTFSSEFKLQMVRLYKNGKLKNEIIRKYDLKPSIISNSIKQHQNTGPFNHQDNLKSDEKELIKLRKEVQHLKMEHDVLKQILKLILEHHHHHH | not soluble |
| MIKQIGTVAVYVEDQQKAKQFWTEKVGFDIAADHPMGPEASWLEVAPKGAETRLVIYPKAMMKGSEQMKASIVFECEDIFGTYEKMKTNGVEFLGEPNQMEWGTFVQFKDEDGNVFLLKE | not soluble |
| MIKQRTLKQSIKVTGVGLHSGEKVTLTLRPAMPNTGVVYYRTDLNPAVAFPADPNSVRDTMLCTALINEQGVRISTVEHLNAALAGLGIDNIIIEVDAPEIPIMDGSASPFIYLLLDAGIEEQNAAKKFIRIKQYVRVEDGDKWAEFKPYNGFRLDFTIDFDHPAIGKDVRNYEMNFSAQAFVHQISRARTFGFMKDIEYLQSQGLVLGGSLDNAIVLDDYRILNEDGLRFKDELVRHKMLDAIGDLYMAGYNIIGDFKAYKSGHGLNNKLLRAVLANQEAWEFVTFEDKAQVPQGYVAPVQVLILEHHHHHH | soluble |
| MIKRNLLVMGLAVLLSACGFQLRGTGTTELAIKELDVSARNAYGETVTQLTRLLTSSGVKVYTGAPYKLILTSENETQRTISFSGSGRSAEYQLTNTLTYEIHGDRDRLLLDNKVSADRSYVHDGNNLTGSDQEASQVRQEMRNDLIQKLMARLQQLTPSRLDELQAKADAVAKAEADALEAAQRIRDETPQQSPVEVPARLEHHHHHH | not soluble |
| MIKVALPKGRLFEETVDLLLKRGIIEKRIEEGRKLILEEGGITFFLVKPSDVPVYVESGVSDLGVCGYDVYLEKKPSVYRLMDLGIGFCRIAVAGKPESEEKYFSSTHISVATKYPNIAYEFFKKKGVKADIYYLNGSVELAPLVGLSDFILDLVQTGRTLKENGLIVIEEVGKSTAWLIANKDSFRIKNGQIMEFLSRLVQHNKDGLQVQGSSLEHHHHHH | not soluble |
| MILIADSGSTKTDWCVVLNGAVIKRLGTKGINPFFQSEEEIQQKLTASLLPQLPEGKFNAVYFYGAGCTPEKAPVLRRAIADSLPVIGNIKANSDMLAAAHGLCGQKAGIACILGTGSNSCFYNGKEIVSNISPLGFILGDEGSGAVLGKLLVGDILKNQLPATLKEEFLKQFDLTPPEIIDRVYRQPFPNRFLASLSPFIAQHLEEPAIRQLVMNSFIAFFRRNVMQYDYKQYPVHFIGSIAYCYKEILQDAARQTGIQIGKILQSPMEGLIQYHSQLSFHPLEHHHHHH | soluble |
| MILLDTNVISEPLRPQPNERVVAWLDSLILEDVYLSAITVAEMRLGVALLLNGKKKNVLHERMEQSILPLFAGRILPFDEPVAAIYAQIRSYAKTHGKEIAAADGYIAATAKQHSMTVATRDTGSFFAADVAVFNPWHLEHHHHHH | soluble |
| MILLSVHDSFLLDHNLPSACDKVFERLLDVTNSSFGFIATLQEDEDGQSLYLPAISNLAWDEETLTWYRHQRRTHGGLRLRKLDNLFGHVVTHNTVVCTNSLLRQKAGRDLPPIHPALHSLLGIPITHNGKTVGMIALANRREGYDQTMIELEHHHHHH | not soluble |
| MILNIRKMGNSQGVILPKSLLGQIGAVDSLAVTVEKGNIILSCPTVRRGWAEAAAMLVETEQEHFFSEIENEADKEWIW | not soluble |
| MIMGFWNGVAKAAKAVGEGMIEAGNEHKALKMEYAEKSSEELHEIVKSDGFFKNSTREKSAAYAILKERGEV | not soluble |
| MINANRPIINLDLDLLRTFVAVADLNTFAAAAAAVCRTQSAVSQQMQRLEQLVGKELFARHGRNKLLTEHGIQLLGYARKILRFNDEACSSLMFSNLQGVLTIGASDESADTILPFLLSRISSVYPKLALDVRVKRNAYMVDMVKSQEVDLVVTTNQPHSLDCLNLRTSPTHWYCAAEYVLQRGEPVPLVLLDDPSPFRDMVLETLNAAGIPWRLAYVASTLPAVRAAVKAGLGVTARPVEMMSPDLRVLGAADGLPPLPDTEYLLCRDPNSQNELAMVIFHAMESYQNPWHYNQFSAEGGDDPLMVEGGFE | not soluble |
| MINIIGLGPGNLDYITKKGENLISTSDVLIGGKRNLESIKNFEGEKIVLDSNLREIIEYINNNKEKQISIIASGDPLIYGIGRYLSKNIDNKMLNMVSGISSLQYIFSKIYVDMNDVYITSSHGKVPDFDYILSHKKVCMVTDSKIGPKQISREIIDRNLNKIIVVGENLSYDNEKITIAKPEEIIRIDNFDMNVVVILDEE | not soluble |
| MINIYYNVEPLRSNEEITDFVNKARNGTHGERNALLILIGLNTGLRMSDILNLKVGQIRYHDIVHITEKKTKKRRVILLTRLRPQINHYIKDLPDNEYLFTNRQHQPLSVNAVYKLFQTIARKMHRTDIGTHTLRKTFGYHYYQQTHDIGTLMMIFNHSNEAITKRYIGLNQDVILKQMAGFQLGLEYEKATNMR | not soluble |
| MINKPNQFLNHLDGLKQHFSDYDSLQKSFKKYLSENQTELNNFFFNQFEKIIVLVKKKEFKTAQERCEEELATPYFSKPLVGFFQSLLQLINHDLIEQKNQQLANMSCEKIVEMVLSDYPNKLNLIHYLLAKEASFVNPNLLQRMTFVLTDLELLELKRFSFFKALNQIPAFKNHKVTYFNSKLKQKFVITLGEFAFPQTDKTKQFFQQLIKKVSQLFLKEPVSCEFAYEIIDALLVSFFPLHPNLEVNHLAKKIHQYVSKIVINEVVDLKDPTTKLIVDTLYEQLDRAIGEEN | soluble |
| MINMTRKLYYEDAYLKEAKGRVLEIRDNAILLDQTIFYPTGGGQPHDRGTINGVEVLDVYKDEEGNVWHVVKEPEKFKVGDEVELKIDWDYRYKLMRIHTGLHLLEHVLNEVLGEGNWQLVGSGMSVEKGRYDIAYPENLNKYKEQIISLFNKYVDEGGEVKIWWEGDRRYTQIRDFEVIPCGGTHVKDIKEIGHIKKLKRSSIGRGKQRLEMWLE | soluble |
| MINSINIQIRETNTDDFDSIMTVEKQAFGYDKEAQLVADLLADKTAEPMVSLLAFYKGEAVGHILFTRAYFDGQGALQMMHILAPLAVKPEYQRQGIGGMLIRAGIERLQEKGSCLVFVLGHKEYYPEYGFIPDAARLGYPAPYPILEQFSDYWMVQAISPKGFDVDKGKIRCSDELNKPEHWRDDESDR | not soluble |
| MIPLSIRVPASTANVGPGFDSVGIALSLYLHVVVKEKSDKWQVIHSFEDSIPTDDKNLIVSTACKVCPSLSPHIIEVTSNIPLTRGLGSSASAIVAGIELANQLGKLNLTIDQKVQIATNFEGHPDNVAASILGGTVIGALDGKNVSVVRIESKELGVISLIPNEELNTDESRSVLPDVFPFHEAVKASAISNVLVAALCQKKWKVVGEMMERDHFHEPYRLELVPLLPSIRKCAKEFGAYGTALSGAGPSIFILTPYEKRQEIAEQLARVFTSMKVCELEIDHRGITVNKKEHIGL | not soluble |

Source: the DeepSol protein solubility set
